In US20100081612A1 (GENERAL HOSPITAL, published 2010):
Like-named read-outs stand apart in the source and are kept apart here. Where no end group is shown, it is not given here. [ ]: non-standard residue; d: D form. Phe(4-guanidino) = N=C(N)Nc1ccc(C[C@H](N)C(=O)O)cc1

T1: wild-type human PTHR (human, UniProt Q03431 27-593)
T1 construct: whole, on cells; also called PTHR-WT; intact PTHR
T1 sequence (looked up): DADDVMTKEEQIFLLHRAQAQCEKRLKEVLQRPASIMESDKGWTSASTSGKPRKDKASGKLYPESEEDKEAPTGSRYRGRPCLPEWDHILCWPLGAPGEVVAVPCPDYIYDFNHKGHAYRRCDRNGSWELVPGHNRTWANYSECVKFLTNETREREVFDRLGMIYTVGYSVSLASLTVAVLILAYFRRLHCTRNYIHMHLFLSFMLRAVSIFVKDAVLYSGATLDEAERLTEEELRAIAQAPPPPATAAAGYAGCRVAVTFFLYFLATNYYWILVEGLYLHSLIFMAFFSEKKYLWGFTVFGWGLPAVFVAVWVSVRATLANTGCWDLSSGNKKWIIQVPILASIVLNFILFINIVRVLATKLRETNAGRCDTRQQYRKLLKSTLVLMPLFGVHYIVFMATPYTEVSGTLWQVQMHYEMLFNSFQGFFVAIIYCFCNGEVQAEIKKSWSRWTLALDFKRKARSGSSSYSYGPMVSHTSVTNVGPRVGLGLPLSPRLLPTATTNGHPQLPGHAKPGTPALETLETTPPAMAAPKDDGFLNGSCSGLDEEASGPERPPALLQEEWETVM


Legend:
PTHR-delNt (human) [1] = target: PTHR-delNt (human) (UniProt Q03431); assay: competition binding, COS-7 membranes, 125I-[Aib1,3,M]PTH(1-15) tracer
PTHR-delNt (human) [2] = target: PTHR-delNt (human) (UniProt Q03431); assay: as above; remark: listed apart in the source
wild-type human PTHR [3] = target: T1, wild-type human PTHR; assay: competition binding, HKRK-B7 cells, 125I-PTH(1-34) tracer
How it was run: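 Intact HKRK-B7 cells stably expressing hPTHR incubated 4 h at 15° C with ¹²⁵I-PTH(1-34) tracer and unlabeled peptide (3×10⁻⁹ to 1×10⁻⁵ M). Nonspecific binding defined with 1×10⁻⁶ M PTH(1-31)NH₂. Bound activity counted after lysis and expressed as % specific binding without competitor; values in nM, mean ± s.e.m.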

wild-type human PTHR [4] = target: T1, wild-type human PTHR; assay: as above

Row | fold reduction in binding affinity vs [Ala^1,Arg^19]PTH(1-31)NH2 (PTHR-delNt (human) [1]) | IC50 (PTHR-delNt (human) [2]) | fold reduction in binding affinity vs [Ala^1,Arg^19]PTH(1-31)NH2 (PTHR-delNt (human) [2]) | IC50 (wild-type human PTHR [3]) | IC50 (wild-type human PTHR [4]) | fold difference of IC50 from PTH(1-31)NH2 (PTHR-delNt (human) [2]) | Binder
1 | 90 fold | 18900 nM | 50 fold | 125 nM | – | – | AVSEIQLMHNLGKHLNSMERVEWLRKKLQDV-NH2 [[Ala^1,Arg^19]hPTH(1-31)NH2 Arg^19→Glu]
2 | – | 2050 nM | – | – | > 10000 nM | < 4 fold | SVSEIQLMHNLGKHLNSME[Phe(4-guanidino)]VEWLRKKLQDV-NH2 (N-terminus assumed; SMILES CC[C@H](C)[C@H](NC(=O)[C@H](CCC(=O)O)NC(=O)[C@H](CO)NC(=O)[C@@H](NC(=O)[C@@H](N)CO)C(C)C)C(=O)N[C@@H](CCC(N)=O)C(=O)N[C@@H](CC(C)C)C(=O)N[C@@H](CCSC)C(=O)N[C@@H](Cc1c[nH]cn1)C(=O)N[C@@H](CC(N)=O)C(=O)N[C@@H](CC(C)C)C(=O)NCC(=O)N[C@@H](CCCCN)C(=O)N[C@@H](Cc1c[nH]cn1)C(=O)N[C@@H](CC(C)C)C(=O)N[C@@H](CC(N)=O)C(=O)N[C@@H](CO)C(=O)N[C@@H](CCSC)C(=O)N[C@@H](CCC(=O)O)C(=O)N[C@@H](Cc1ccc(NC(=N)N)cc1)C(=O)N[C@H](C(=O)N[C@@H](CCC(=O)O)C(=O)N[C@@H](Cc1c[nH]c2ccccc12)C(=O)N[C@@H](CC(C)C)C(=O)N[C@@H](CCCNC(=N)N)C(=O)N[C@@H](CCCCN)C(=O)N[C@@H](CCCCN)C(=O)N[C@@H](CC(C)C)C(=O)N[C@@H](CCC(N)=O)C(=O)N[C@@H](CC(=O)O)C(=O)N[C@H](C(N)=O)C(C)C)C(C)C) [PTH(1-31)NH2 Arg^20→Gph]
